The text below walks through data of publication PMC8551270 (Scientific Reports, 2021).

For data set [1] the following is noted: cited from earlier work.
Data set [2] can be described thus: plasma samples from minipigs dosed i.v., pooled from two minipigs for each time point. To be noted: Göttingen Minipigs, up to 288 h post dosing.
Data set [3] concerns the target PYY3-36 analogue 59: [Lys4(TAMRA), Lys30(C16 diacid-gammaGlu-2xAdo)]PYY3-36 L30K (acylated) (UniProt P10082). In words: fluorescence polarization (TAMRA-labelled peptide; excitation 535/25 nm, emission 595/35 nm; Tecan Spark, 384-well plate). Conditions: room temperature, 140 mM NaCl at pH 7.4, 150 mM NaCl at pH 6.0, 10 mM sodium phosphate at pH 7.4, 20 mM MES at pH 6.0. On the technique in general: In fluorescence polarisation assays a small probe gives low polarisation when free and higher when bound to something large.

Data set [4] concerns the target PYY3-36 analogue 58: [Lys4(TAMRA), Lys30(C14 diacid-gammaGlu-2xAdo)]PYY3-36 L30K (acylated) (UniProt P10082). Described as above. To be noted: room temperature, 140 mM NaCl at pH 7.4, 150 mM NaCl at pH 6.0, 10 mM sodium phosphate at pH 7.4, 20 mM MES at pH 6.0.
Data set [5] has as its target PYY3-36 analogue 60: [Lys4(TAMRA), Lys30(C20 diacid-gammaGlu-2xAdo)]PYY3-36 L30K (acylated) (UniProt P10082). The data set is described as above. To be noted: room temperature, 140 mM NaCl at pH 7.4, 150 mM NaCl at pH 6.0, 10 mM sodium phosphate at pH 7.4, 20 mM MES at pH 6.0.
The target in data set [6] is PYY3-36 analogue 56: [Lys4(TAMRA), Lys30(C18 diacid-gammaGlu-2xAdo)]PYY3-36 L30K (acylated) (UniProt P10082). Described as above. To be noted: room temperature, 140 mM NaCl at pH 7.4, 150 mM NaCl at pH 6.0, 10 mM sodium phosphate at pH 7.4, 20 mM MES at pH 6.0.

Entries after “also recorded” stand apart in the source; their conditions may differ.

Chain of PYY3-36 analogue 59: [Lys4(TAMRA), Lys30(C16 diacid-gammaGlu-2xAdo)]PYY3-36 L30K (acylated) (P10082 whole entry, stated change not applied): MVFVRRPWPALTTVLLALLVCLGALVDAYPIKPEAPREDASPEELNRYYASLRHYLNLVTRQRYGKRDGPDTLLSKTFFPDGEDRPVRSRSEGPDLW
Chain of PYY3-36 analogue 58: [Lys4(TAMRA), Lys30(C14 diacid-gammaGlu-2xAdo)]PYY3-36 L30K (acylated) (P10082 whole entry, stated change not applied): as above
Chain of PYY3-36 analogue 56: [Lys4(TAMRA), Lys30(C18 diacid-gammaGlu-2xAdo)]PYY3-36 L30K (acylated) (P10082 whole entry, stated change not applied): as above
Chain of PYY3-36 analogue 60: [Lys4(TAMRA), Lys30(C20 diacid-gammaGlu-2xAdo)]PYY3-36 L30K (acylated) (P10082 whole entry, stated change not applied): as above

As for semaglutide, the “half-life in the minipig model” value in data set [1] was “approximately 46 hours”.

In the case of [(C18diacid-γGlu-2xAdo)]PYY3-36, in data set [2], the fragment found entry was “PYY3-34; also recorded: PYY3-35”.

For the substance [K^ε30(C18diacid-γGlu-2xAdo)]PYY3-36, the fragment found result in data set [2] was “PYY4-36, minor; also recorded: PYY6-36, minor”.

In the case of [C20diacid-Trx-γGlu-2xAdo]PYY3-36, the fragment found result in data set [2] is “[C20diacid-Trx-LgGly-2xAdo]PYY3-34, major”.

The Kd is the concentration at which binding is half-saturated. A lower Kd goes with higher affinity. “porcine serum albumin (PSA), charcoal-defatted”: the Kd was 5300 nM in data set [3] (pH 6.0); 4500 nM in data set [3] (pH 7.4); 34000 nM in data set [4] (pH 6.0); 48000 nM in data set [4] (pH 7.4); 460 nM in data set [5] (pH 6.0); 270 nM in data set [5] (pH 7.4). The Kd in data set [6] (pH 6.0) is 890 nM; in data set [6] (pH 7.4), 600 nM.

As to “human serum albumin (HSA), fatty-acid free”, the Kd was found to be 4700 nM in data set [3] (pH 6.0); 4200 nM in data set [3] (pH 7.4); 23000 nM in data set [4] (pH 6.0); 44000 nM in data set [4] (pH 7.4); 350 nM in data set [5] (pH 6.0); 98 nM in data set [5] (pH 7.4). For the same substance, the Kd in data set [6] (pH 6.0) is 930 nM; in data set [6] (pH 7.4), 580 nM.
